Results: US20210198647A1 (TEXAS TECH UNIVERSITY SYSTEM, published 2021)
Ends that are not written are not given here.

How the values were obtained:
Test in all cases: cell-based or functional assay
[1] = target: recombinant human thimet oligopeptidase (R & D systems, product number 3439-ZN) (human, UniProt P52888 1-689, limits assumed)
[2] = target: recombinant human angiotensin converting enzyme (R & D systems, product number 929-ZN) (human, UniProt P12821 30-1261)
[3] = target: recombinant human ACE2 (R & D systems, product number 933-ZN) (human, UniProt Q9BYF1 18-740)
[4] = target: recombinant human neprilysin (R & D systems, product number 1182-ZNC) (human, UniProt P08473 52-750)
[5] = target: Neurolysin (Nln) as used for the A50 and Amax values of Tables 2 and 5

recombinant human ACE2 (R & D systems, product number 933-ZN), sequence (Q9BYF1 18-740 limits assumed): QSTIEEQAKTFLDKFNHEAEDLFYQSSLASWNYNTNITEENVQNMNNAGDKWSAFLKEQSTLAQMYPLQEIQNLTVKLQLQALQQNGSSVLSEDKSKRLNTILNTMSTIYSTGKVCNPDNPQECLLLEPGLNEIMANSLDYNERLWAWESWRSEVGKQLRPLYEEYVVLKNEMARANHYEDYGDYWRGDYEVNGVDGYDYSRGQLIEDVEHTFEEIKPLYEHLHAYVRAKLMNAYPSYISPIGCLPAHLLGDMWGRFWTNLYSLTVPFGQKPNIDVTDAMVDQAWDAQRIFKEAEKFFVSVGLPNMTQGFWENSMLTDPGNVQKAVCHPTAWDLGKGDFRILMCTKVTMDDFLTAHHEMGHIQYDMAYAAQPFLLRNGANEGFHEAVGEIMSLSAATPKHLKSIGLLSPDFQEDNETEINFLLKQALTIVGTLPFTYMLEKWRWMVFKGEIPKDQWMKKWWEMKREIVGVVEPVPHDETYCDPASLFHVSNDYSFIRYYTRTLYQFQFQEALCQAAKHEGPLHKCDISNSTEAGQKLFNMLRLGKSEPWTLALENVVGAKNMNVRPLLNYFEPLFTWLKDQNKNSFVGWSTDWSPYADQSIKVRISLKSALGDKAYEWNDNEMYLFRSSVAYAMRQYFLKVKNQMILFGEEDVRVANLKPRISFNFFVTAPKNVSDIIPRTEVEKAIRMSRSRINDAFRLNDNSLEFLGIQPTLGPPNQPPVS
recombinant human thimet oligopeptidase (R & D systems, product number 3439-ZN), sequence (P52888 whole entry): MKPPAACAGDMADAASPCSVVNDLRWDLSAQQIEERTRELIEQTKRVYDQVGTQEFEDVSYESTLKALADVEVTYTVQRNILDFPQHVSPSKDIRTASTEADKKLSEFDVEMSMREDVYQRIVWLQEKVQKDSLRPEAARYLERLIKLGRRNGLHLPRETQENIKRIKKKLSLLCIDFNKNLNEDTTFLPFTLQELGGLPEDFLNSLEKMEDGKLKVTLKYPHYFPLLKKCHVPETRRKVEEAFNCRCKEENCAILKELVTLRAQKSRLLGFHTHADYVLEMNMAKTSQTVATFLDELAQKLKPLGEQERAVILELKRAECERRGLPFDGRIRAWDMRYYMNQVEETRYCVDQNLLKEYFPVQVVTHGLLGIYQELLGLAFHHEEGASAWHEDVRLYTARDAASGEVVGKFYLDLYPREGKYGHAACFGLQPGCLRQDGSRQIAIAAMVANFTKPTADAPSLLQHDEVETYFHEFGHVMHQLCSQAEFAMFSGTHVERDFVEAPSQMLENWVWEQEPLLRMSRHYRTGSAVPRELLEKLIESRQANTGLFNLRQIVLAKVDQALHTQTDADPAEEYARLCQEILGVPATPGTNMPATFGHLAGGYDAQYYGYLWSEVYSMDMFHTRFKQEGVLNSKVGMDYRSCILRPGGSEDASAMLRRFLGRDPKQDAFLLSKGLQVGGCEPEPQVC
recombinant human neprilysin (R & D systems, product number 1182-ZNC), sequence (P08473 52-750 limits assumed): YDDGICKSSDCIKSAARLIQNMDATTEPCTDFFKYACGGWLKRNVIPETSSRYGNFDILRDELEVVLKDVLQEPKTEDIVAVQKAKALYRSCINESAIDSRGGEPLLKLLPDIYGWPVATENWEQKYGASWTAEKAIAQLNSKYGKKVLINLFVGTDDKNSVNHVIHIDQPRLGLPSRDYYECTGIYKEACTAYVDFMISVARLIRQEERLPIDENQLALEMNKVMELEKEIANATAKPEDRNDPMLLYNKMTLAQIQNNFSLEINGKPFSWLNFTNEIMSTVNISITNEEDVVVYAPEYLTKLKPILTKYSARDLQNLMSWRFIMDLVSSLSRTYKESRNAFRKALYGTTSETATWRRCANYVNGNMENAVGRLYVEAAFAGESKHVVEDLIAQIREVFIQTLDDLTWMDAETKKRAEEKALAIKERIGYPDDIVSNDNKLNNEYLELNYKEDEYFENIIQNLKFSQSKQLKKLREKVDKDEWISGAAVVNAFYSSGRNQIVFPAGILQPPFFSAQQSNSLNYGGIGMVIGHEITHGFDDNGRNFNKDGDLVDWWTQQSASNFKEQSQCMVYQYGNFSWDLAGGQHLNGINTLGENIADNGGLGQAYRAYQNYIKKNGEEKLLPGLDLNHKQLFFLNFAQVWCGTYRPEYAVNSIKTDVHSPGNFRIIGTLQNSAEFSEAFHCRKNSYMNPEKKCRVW
recombinant human angiotensin converting enzyme (R & D systems, product number 929-ZN), sequence (P12821 30-1261 limits assumed): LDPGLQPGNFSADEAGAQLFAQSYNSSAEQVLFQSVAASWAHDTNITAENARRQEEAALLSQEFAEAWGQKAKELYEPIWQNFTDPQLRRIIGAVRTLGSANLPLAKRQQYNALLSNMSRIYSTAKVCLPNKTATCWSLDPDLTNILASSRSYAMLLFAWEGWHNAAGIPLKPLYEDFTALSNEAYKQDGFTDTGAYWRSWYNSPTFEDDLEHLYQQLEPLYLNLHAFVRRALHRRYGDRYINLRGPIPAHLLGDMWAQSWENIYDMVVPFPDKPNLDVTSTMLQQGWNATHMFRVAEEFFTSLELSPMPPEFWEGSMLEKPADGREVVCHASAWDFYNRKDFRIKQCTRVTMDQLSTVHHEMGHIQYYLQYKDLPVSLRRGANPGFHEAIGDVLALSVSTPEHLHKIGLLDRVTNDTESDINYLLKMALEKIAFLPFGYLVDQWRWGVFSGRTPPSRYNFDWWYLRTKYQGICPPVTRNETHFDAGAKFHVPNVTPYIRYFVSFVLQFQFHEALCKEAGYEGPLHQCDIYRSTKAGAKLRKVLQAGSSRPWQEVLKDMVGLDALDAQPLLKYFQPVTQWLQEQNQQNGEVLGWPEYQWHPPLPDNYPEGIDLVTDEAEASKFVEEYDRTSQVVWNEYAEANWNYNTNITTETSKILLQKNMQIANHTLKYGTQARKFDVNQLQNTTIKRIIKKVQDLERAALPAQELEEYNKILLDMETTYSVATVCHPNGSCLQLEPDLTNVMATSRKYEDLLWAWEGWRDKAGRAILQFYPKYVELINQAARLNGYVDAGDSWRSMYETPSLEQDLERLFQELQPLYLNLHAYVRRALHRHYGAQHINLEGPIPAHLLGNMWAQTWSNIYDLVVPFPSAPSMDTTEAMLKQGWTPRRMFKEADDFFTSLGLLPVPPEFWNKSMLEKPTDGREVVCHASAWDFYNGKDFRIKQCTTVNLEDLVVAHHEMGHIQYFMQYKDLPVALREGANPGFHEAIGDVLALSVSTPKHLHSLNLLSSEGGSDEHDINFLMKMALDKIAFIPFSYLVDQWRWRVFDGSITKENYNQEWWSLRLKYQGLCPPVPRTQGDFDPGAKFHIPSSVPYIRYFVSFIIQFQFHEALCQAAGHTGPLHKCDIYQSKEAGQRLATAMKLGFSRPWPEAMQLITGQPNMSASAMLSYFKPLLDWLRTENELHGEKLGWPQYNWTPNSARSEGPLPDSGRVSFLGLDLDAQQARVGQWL

| inhibition of activity at 300 µM (quenched fluorescent substrate hydrolysis) [1] | inhibition of activity at 300 µM (quenched fluorescent substrate hydrolysis) [2] | inhibition of activity at 300 µM (quenched fluorescent substrate hydrolysis) [3] | inhibition of activity at 300 µM (quenched fluorescent substrate hydrolysis) [4] | A50 [5] | Amax [5] | Binder |
| --- | --- | --- | --- | --- | --- | --- |
| 15.6% | 12.2% | 10.9% | 1.6% | – | – | His-His (also: mixture of D- and L-His at both positions) [NlnA#2, NSC 523374, D,L-histidyl-D,L-histidine] |
| – | – | – | – | 130 µM | 573% | HF [His-Phe] |
| – | – | – | – | – | 440% | HW [His-Trp] |
| 25.9% | 22.6% | 13.4% | 2.9% | – | 467% | HY [NlnA#1, NSC 374121, L-histidyl-L-tyrosine] |
| – | – | – | – | – | 502% | HP [His-Pro] |
